According to patent publication US20200270310A1, “MAFG AS A POTENTIAL THERAPEUTIC TARGET TO RESTORE CHEMOSENSITIVITY IN PLATINUM-RESISTANT CANCER CELLS” (FUNDACÓIN PARA LA INVESTIGACIÓN BIOMÉDICA DEL HOSPITAL …, priority 2017, published 2020):

B1: GCGGATGAAGACTGGTGTCGATGCATGTGTAGTGCATTTCGAGCCGTTCTATTGGTGTGCCCTAAATACGAGCAAC (nucleic acid)
chain: GCGGATGAAGACTGGTGTCGATGCATGTGTAGTGCATTTCGAGCCGTTCTATTGGTGTGCCCTAAATACGAGCAAC
modifications: chemistry not given here
notes: DNA aptamer selected against the MAFG protein by SELEX

How the values were obtained:
H23S cells = assay: ROS production after CDDP exposure, sensitive cells; format: cell-based, human
Description: (§1) FIG. 2. Viability assays and Reactive Oxygenated Species detection after CDDP treatment in H23 cell lines. (A) Viability to CDDP in H23S (left) and H23R (right) at 24, 48 and 72 hours and 6 concentrations of CDDP measured by MTT assay. (B) Increment of ROS production in H23S (left) and H23R (right) after 24, 48 and 72 hours of CDDP treatment. $: 72h (vs Basal).
(§2) H23/A2780 cells were cultured in 96-well black plates at density of 10,000 cells/well. Cells were treated with 6 different doses of CDDP for 24, 48 and 72 h in RPMI containing 10% FBS. Then treatments were removed and cells were loaded with the fluorescent probe 2′,7′-dichlorodihydrofluorescein diacetate (H2DCFDA) (10 μM) for 45 minutes in RPMI medium (FBS free). Cells were washed twice with RPMI (10% FBS), and fluorescence was recorded in a Fluostar Optima, each hour, over 4 hours period. […] ROS production was calculated dividing the mean H2DCFDA fluorescence by the mean viability. […] All experiments included cells treated with RPMI alone (Basal), and one well without cells as fluorescence basal.
(§3) H23/A2780 cells were cultured in 96-well black plates at density of 10,000 cells/well. […] Cells were washed twice with RPMI (10% FBS), and fluorescence was recorded in a Fluostar Optima at 520 nm after excitation at 485 nm. […] ROS production was calculated dividing the mean H2DCFDA fluorescence by the mean viability. […]

NRF2 = assay: Semiquantitative RT-PCR expression after cisplatin treatment; format: cell-based, human
Description: (§4) For semiquantitative RT-PCR, 500 ng of total RNA isolated from cell lines was used for RT reaction using PrimeScript™ RT Master (Clontech-Takara, USA) and subsequent semiquantitative PCR using Promega PCR Mix (Promega, USA) as previously described. Relative quantification was performed by measuring the intensity of band amplified using ImageJ software. Primers for HMOX1 (F: 5′-[…]-3′; R: 5′-[…]-3′), MAFG (F: 5′-[…]-3′; R: 5′-[…]-3′) and GAPDH (F: 5′-GAGAGACCCTCACTGCTG-3′; R: 5′-[…]-3′) were designed to include the probe from the array in order to assure the correct transcript identification.

[1] = system: A2780 ovarian cancer cells; assay: ROS production after CDDP exposure, ovarian cells; format: cell-based, human
Description: as §1, with “3.” for “2.”, “A2780” for “H23”, “A2780S” for “H23S”, “A2780R” for “H23R”
as §2, §3

[2] = target: T1, MAFG in H23S and H23R cells (Homo sapiens, UniProt O15525); assay: Aptacytochemistry with digoxigenin-labeled individual aptamers; format: cell-based
T1 construct: endogenous in cells; host or cells: H23S and H23R (NSCLC cells, fixed)
Description: Following the methodology described above, H23R cells were incubated with 6 pmol of digoxigenin-labeled aptamers (IBA Life Sciences) in selection buffer for 1 hour at room temperature. Subsequently, cells were washed three times with PBS and incubated with anti-digoxigenin conjugated with 5′ AlexaFluor 488 (R&D systems, USA) at 1/500 dilution in blocking buffer for 1 hour at room temperature, as secondary antibody. Finally, the cells were mounted on glass slides using glycerol-buffer containing p-phenylenediamine and 1/750 dilution of Dapi for nuclear staining. Controls were made by omitting the aptamer. Colocalization was assessed by confocal microcopy as described in (iii).

H23R cells = assay: Semiquantitative RT-PCR of MAFG and HMOX1 in aptamer-transfected cells after platinum treatment; format: cell-based, human; conditions: aptamer-transfected H23R after platinum treatment vs H23R
Description: as §4

MAFG-Myc = target: T2, MAFG-Myc (Homo sapiens, UniProt O15525); assay: Enzyme-linked oligonucleotide assay (ELONA) of aptamers and aptamer populations; format: binding
T2 construct: Myc (C); DDK (FLAG)
Description: FIG. 4. Analysis of the affinity of the aptamers against MAFG. (A) Quantification of aptamer-MAFG complexes by qPCR comparing absence (dot pattern) or presence (filled pattern) of MAFG protein. […] Bars represent the mean±SEM of 2-3 experiments (B) Specificity binding assay of aptamers to MAFG performed by ELONA. MAFG-myc was plated at 50ng/well in 96-well plates followed by incubation with 5′ digoxigenin-labeled aptamers from RND40, SEL3MAFG and SEL6MAFG. The figure represents the mean±SEM of 3 independent experiments. p<0.01. (C) Aptacytochemistry in HEK-293T cells transiently transfected with MAFG-myc. Cells overexpressing MAFG were incubated with 5′ Alexafluor 488-conjugated aptamers from RND40, SEL3MAFG or SEL6MAFG (upper panel) or Myc antibody (lower panel). Confocal microscopy images corresponding to the staining of nuclei with Hoechst (blue), antibodies (red), and aptamers (green) are shown. Arrowhead indicates positive cells. Bar=13 μm. (D) Study of individual aptamers affinity performed by ELONA. Recombinant MAFG was plated at 50 ng/well in 96-well plates followed by incubation with 5′ digoxigenin-labeled individual aptamers apMAGF3F, apMAFG6F and apMAFG11F. The figure represents the mean±SD of 2 independent experiments. (E) Secondary structures of aptamers apMAGF3F, apMAFG6F and apMAFG11F obtained by bioinformatics sequence analysis using the mFold software taking into account the lower free energy (AG).
(ii) Enzyme-linked oligonucleotide assay (ELONA): Aptamers were labeled by PCR using 5′ digoxigenin-labeled F3/5′ digoxigenin-labeled R3 primers (IBA Life Sciences). To assess the enrichment of the selected population and the affinity of the individual aptamers for the target, MAFG-Myc (50 ng) was incubated with the rounds 3, 6 of aptamers or the RND40 library. OD405nm values were determined using a SpectraFluor microplate reader (TECAN, Barcelona, Spain).

| Molecule | ROS production versus basal untreated cells (H23S cells; 3.00 μg/ml CDDP) [%] | ROS after treatment with the drug (H23S cells; Example 1) | NRF2 expression after cisplatin treatment (NRF2) | differences in ROS production between sensitive and resistant cells [1] | cellular localization of the aptamer [2] | number of dots per nucleus, H23R versus H23S [2] | HMOX1 expression (H23R cells) | MAFG expression (H23R cells) | affinity against MAFG (MAFG-Myc; Example 1, individual aptamers) | binding capacity to the target (MAFG-Myc; Example 3, individual sequences from SEL6MAFG) | binding signal relative to BSA protein (MAFG-Myc; individual sequences from SEL6MAFG) |
| --- | --- | --- | --- | --- | --- | --- | --- | --- | --- | --- | --- |
| [NH2][Pt]([NH2])([Cl])[Cl] [CDDP, Cisplatin] | 300 | increased | did not changed | confirmed |  |  |  |  |  |  |  |
| B1 |  |  |  |  | preferentially located at the nuclei | remarkable differences | decrease in their expression | decrease in their expression | high affinity | high binding capacity to the target in the nanomolar range | four times that of the BSA protein |
